Patent US20240279281A1, “Peptide Inhibitors of Interleukin-23 Receptor” (Janssen Pharmaceutica NV, priority 2023, published 2024)
Starred links: 1 amine or outer side, 2 acyl side, 3 side chain; linkers in the order of their positions; H or OH if unused. Non-standard residues stand in square brackets, D forms with d. No end group written: not given here. Phe(4-OMe) = COc1ccc(C[C@H](N[*:1])C(=O)[*:2])cc1; Trp(7-Br) = N[C@@H](Cc1c[nH]c2c(Br)cccc12)C(=O)O; 2Nal(6-OH) = N[C@@H](Cc1ccc2cc(O)ccc2c1)C(=O)O; Trp(7-Me) = Cc1cccc2c(C[C@H](N)C(=O)O)c[nH]c12; dLys(Me3) = C[N+](C)(C)CCCC[C@@H](N)C(=O)O; AEF = NCCOc1ccc(C[C@H](N)C(=O)O)cc1; 3Pal = N[C@@H](Cc1cccnc1)C(=O)O; Aad = N[C@@H](CCCC(=O)O)C(=O)O; Pen = CC(C)(S)[C@H](N)C(=O)O; αMeK = C[C@](N)(CCCCN)C(=O)O; αMeC = C[C@](N)(CS)C(=O)O; lipid = not defined here; Thp = NC1(C(=O)O)CCOCC1; PEG = not defined here; Sar = CNCC(=O)O

B1: SEQ ID NO: 382 (peptide)
peptide: [Pen]ET[Trp(7-Me)][N,N,N‑trimethylhomolysine][Pen][2‑amino‑3‑(4-(2-(methylamino)ethoxy)phenyl)propanoic acid][2‑amino‑3‑(6-hydroxynaphthalen-2-yl)propanoic acid][Thp]EN[3Pal][Sar]
modifications: not fully specified (bridges); ends and bridges not checked
B2: SEQ ID NO: 308 (peptide)
peptide: [Pen]NT[Trp(7-Me)]K(Ac)[Pen][Phe(4-OMe)][2Nal(6-OH)][αMeK]LN[3Pal][Sar]
modifications: not fully specified (bridges); ends and bridges not checked
B3: SEQ ID NO: 326 (peptide)
peptide: [Pen]ET[Trp(7-Me)]K(PEG)[Pen][AEF][2Nal(6-OH)][Thp]EN[3Pal][Sar]
modifications: not fully specified (bridges); ends and bridges not checked; also: PEG chain on Lys unspecified
B4: SEQ ID NO: 348 (peptide)
peptide: K[Pen]NT[Trp(7-Me)]K[Pen][AEF][2Nal(6-OH)][Thp][Aad]N[3Pal][Sar]
modifications: not fully specified (residue 6, bridges); ends and bridges not checked
B5: SEQ ID NO: 340 (peptide)
peptide: [(R)‑3‑carboxy‑2‑(4-(((R)-5-carboxy-5-hydrazineylpentyl)amino)-4-oxobutanamido)‑N,N,N‑trimethylpropan‑1‑aminium][Pen]NT[Trp(7-Me)]K(Ac)[Pen][AEF][2Nal(6-OH)][Thp]EN[3Pal][Sar]
modifications: not fully specified (bridges); ends and bridges not checked
B6: SEQ ID NO: 312 (peptide)
peptide: R[Pen]NT[Trp(7-Br)]K(Ac)[Pen][AEF][2Nal(6-OH)][Thp]EN[3Pal][Sar]
modifications: not fully specified (bridges); ends and bridges not checked
B7: SEQ ID NO: 378 (peptide)
peptide: [Pen]NT[Trp(7-Me)]K(Ac)[Pen][2‑amino‑3‑(4-(2-aminoethoxy)phenyl)propanoic acid][2‑amino‑3‑(6-hydroxynaphthalen-2-yl)propanoic acid][Thp]EN[3Pal][Sar]
modifications: not fully specified (bridges); ends and bridges not checked
B8: SEQ ID NO: 313 (peptide)
peptide: [Pen]NT[Trp(7-Br)]K(Ac)[Pen][AEF][2Nal(6-OH)][Thp]EN[3Pal][Sar]
modifications: not fully specified (bridges); ends and bridges not checked
B9: SEQ ID NO: 347 (peptide)
peptide: [Pen]NT[Trp(7-Me)]K(Ac)[Pen][AEF][2Nal(6-OH)][Thp]EN[3Pal][Sar]
modifications: not fully specified (bridges); ends and bridges not checked
B10: SEQ ID NO: 331 (peptide)
peptide: [Pen]ET[Trp(7-Me)]K(Ac)[Pen][AEF][2Nal(6-OH)][Thp]EN[3Pal][Sar]
modifications: not fully specified (bridges); ends and bridges not checked
B11: SEQ ID NO: 380 (peptide)
peptide: [Pen]NT[Trp(7-Me)]K(Ac)[Pen][2‑amino‑3‑(4-(2-aminoethoxy)phenyl)propanoic acid][2‑amino‑3‑(6-hydroxynaphthalen-2-yl)propanoic acid][Thp]EN[3Pal][Sar]
modifications: not fully specified (bridges); ends and bridges not checked
B12: SEQ ID NO: 372 (peptide)
peptide: [Pen]ET[Trp(7-Me)]K(Ac)[Pen][2‑amino‑3‑(4-(2-aminoethoxy)phenyl)propanoic acid][2‑amino‑3‑(6-hydroxynaphthalen-2-yl)propanoic acid][Thp]EN[3Pal][Sar]
modifications: not fully specified (bridges); ends and bridges not checked
B13: SEQ ID NO: 305 (peptide)
peptide: [Pen]NT[Trp(7-Me)]K(lipid)[Pen]F[2Nal(6-OH)][αMeK]LN[3Pal][Sar]
modifications: not fully specified (bridges); ends and bridges not checked; also: lipid group unspecified
B14: SEQ ID NO: 5 (peptide)
peptide: CNT[Trp(7-Me)]K(Ac)[αMeC][2‑amino‑3‑(4-(2-aminoethoxy)phenyl)propanoic acid][2‑amino‑3‑(6-hydroxynaphthalen-2-yl)propanoic acid][Thp]K(Ac)N[3Pal][Sar]
modifications: ends and bridges not checked
B15: SEQ ID NO: 306 (peptide)
peptide: [Pen]NT[Trp(7-Me)]K(Ac)[Pen][Phe(4-OMe)][2Nal(6-OH)][αMeK]LN[3Pal][Sar]
modifications: not fully specified (bridges); ends and bridges not checked
B16: SEQ ID NO: 388 (peptide)
peptide: [dLys(Me3)][Pen]NT[Trp(7-Me)]K(Ac)[Pen][2‑amino‑3‑(4-(2-aminoethoxy)phenyl)propanoic acid][2‑amino‑3‑(6-hydroxynaphthalen-2-yl)propanoic acid][Thp]EN[3Pal][Sar]
modifications: not fully specified (bridges); ends and bridges not checked
B17: SEQ ID NO: 307 (peptide)
peptide: [Pen]NT[Trp(7-Me)]K(lipid)[Pen][Phe(4-OMe)][2Nal(6-OH)][αMeK]LN[3Pal][Sar]
modifications: not fully specified (bridges); ends and bridges not checked; also: lipid group unspecified
B18: SEQ ID NO: 334 (peptide)
peptide: [Pen]NT[2‑amino‑3‑(benzo(b)thiophen-3-yl)propanoic acid]K(Ac)[Pen][AEF][2Nal(6-OH)][Thp]EN[3Pal][Sar]
modifications: not fully specified (bridges); ends and bridges not checked
B19: SEQ ID NO: 379 (peptide)
peptide: [Pen]NT[Trp(7-Me)]K(Ac)[Pen][2‑amino‑3‑(4-(2-aminoethoxy)phenyl)propanoic acid][2‑amino‑3‑(6-hydroxynaphthalen-2-yl)propanoic acid][Thp]EN[3Pal][Sar]
modifications: not fully specified (bridges); ends and bridges not checked

Molecular target: T1, interleukin-23 receptor (IL-23R), Q5VWK5
T1 chain: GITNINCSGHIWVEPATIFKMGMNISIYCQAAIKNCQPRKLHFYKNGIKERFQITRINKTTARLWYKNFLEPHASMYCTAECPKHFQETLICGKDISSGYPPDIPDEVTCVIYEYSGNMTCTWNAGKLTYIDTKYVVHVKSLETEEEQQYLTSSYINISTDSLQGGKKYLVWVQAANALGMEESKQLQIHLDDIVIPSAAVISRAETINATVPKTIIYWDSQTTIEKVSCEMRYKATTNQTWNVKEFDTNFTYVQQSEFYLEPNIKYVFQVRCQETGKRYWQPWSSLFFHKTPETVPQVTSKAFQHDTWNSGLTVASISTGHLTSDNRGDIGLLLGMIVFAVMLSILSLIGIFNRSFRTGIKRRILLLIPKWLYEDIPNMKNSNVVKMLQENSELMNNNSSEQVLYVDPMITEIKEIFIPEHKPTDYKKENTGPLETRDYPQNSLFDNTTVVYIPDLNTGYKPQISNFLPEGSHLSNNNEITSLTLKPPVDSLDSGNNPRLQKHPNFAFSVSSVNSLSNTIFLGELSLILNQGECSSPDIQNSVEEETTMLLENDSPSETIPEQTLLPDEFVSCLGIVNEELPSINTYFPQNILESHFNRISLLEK
Test: cell-based or functional assay

Row | Binder | IL23R Reporter Assay IC50 [nM] | PBMC pSTAT3 IC50 [nM]
1 | B1 | < 10 | < 0.01
2 | B2 | < 10 | 
3 | B3 | < 10 | 
4 | B4 | < 10 | 
5 | B5 | < 10 | < 0.01
6 | B6 | < 10 | 
7 | B7 | < 10 | < 0.01
8 | B8 | < 10 | 
9 | B9 | < 10 | < 0.1
10 | B10 | < 10 | 
11 | B11 | < 10 | 
12 | B12 | < 10 | < 0.01
13 | B13 | < 10 | 
14 | B14 | < 10 | < 0.01
15 | B15 | < 10 | 
16 | B16 | < 10 | < 0.01
17 | B17 | < 10 | 
18 | B18 | < 10 | 
19 | B19 | < 10 | 
